Test results from paper PMC10976588.

Experiments:
[1] = complex I, III, IV, V activity kits; settings: glycan lost; control: WT organoids
[2] = MitoSOX staining in organoids; settings: glycan lost; control: WT organoids
[3] = JC-1 staining in organoids; settings: glycan lost; control: WT organoids
[4] = Western blot, whole-cell lysate; settings: glycan changed form; control: WT crypts
[5] = Western blot of lysosome fractions after CCCP; settings: glycan lost; control: WT organoids
[6] = Western blot of Pink1, pS65-Ub, whole-cell lysate; settings: glycan lost; control: WT organoids

B1: N-acyl sphingosine amidohydrolase 2 (Asah2): Asah2-N444Q (protein)
parent chain: MAKRTFSTLEAFLIFLLVIMTVITVALLTLLFVTSGTIENHKDSGNHWFSTTLGSTTTQPPPITQTPNFPSFRNFSGYYIGVGRADCTGQVSDINLMGYGKNGQNARGLLTRLFSRAFILADPDGSNRMAFVSVELCMISQRLRLEVLKRLESKYGSLYRRDNVILSAIHTHSGPAGFFQYTLYILASEGFSNRTFQYIVSGIMKSIDIAHTNLKPGKIFINKGNVANVQINRSPSSYLLNPQSERARYSSNTDKEMLVLKLVDLNGEDLGLISWFAIHPVSMNNSNHFVNSDNMGYAAYLFEQEKNKGYLPGQGPFVAGFASSNLGDVSPNILGPHCVNTGESCDNDKSTCPNGGPSMCMASGPGQDMFESTHIIGRIIYQKAKELYASASQEVTGPVLAAHQWVNMTDVSVQLNATHTVKTCKPALGYSFAAGTIDGVSGLNITQGTTEGDPFWDTLRDQLLGKPSEEIVECQKPKPILLHSGELTIPHPWQPDIVDVQIVTVGSLAIAAIPGELTTMSGRRFREAIKKEFALYGMKDMTVVIAGLSNVYTHYITTYEEYQAQRYEAASTIYGPHTLSAYIQLFRDLAKAIATDTVANMSSGPEPPFFKNLIASLIPNIADRAPIGKHFGDVLQPAKPEYRVGEVVEVIFVGANPKNSAENQTHQTFLTVEKYEDSVADWQIMYNDASWETRFYWHKGILGLSNATIYWHIPDTAYPGIYRIRYFGHNRKQELLKPAVILAFEGISSPFEVVTT
other: respiratory chain complex activity [1]: decreases | other: mitochondrial ROS level [2]: increases | other: mitochondrial membrane potential [3]: decreases

B2: N-acyl sphingosine amidohydrolase 2 (Asah2): Fut2ΔISC (protein)
parent chain: B1 parent chain
expression_or_secretion [4]: no change

B3: Niemann–Pick type C intracellular cholesterol transporter 1 (Npc1): Npc1-N961Q (protein)
parent chain: MGAHHPALGLLLLLLCPAQVFSQSCVWYGECGIATGDKRYNCKYSGPPKPLPKDGYDLVQELCPGLFFDNVSLCCDIQQLQTLKSNLQLPLQFLSRCPSCFYNLMTLFCELTCSPHQSQFLNVTATEDYFDPKTQENKTNVKELEYFVGQSFANAMYNACRDVEAPSSNEKALGLLCGRDARACNATNWIEYMFNKDNGQAPFTIIPVFSDLSILGMEPMRNATKGCNESVDEVTGPCSCQDCSIVCGPKPQPPPPPMPWRIWGLDAMYVIMWVTYVAFLFVFFGALLAVWCHRRRYFVSEYTPIDSNIAFSVNSSDKGEASCCDPLGAAFDDCLRRMFTKWGAFCVRNPTCIIFFSLAFITVCSSGLVFVQVTTNPVELWSAPHSQARLEKEYFDKHFGPFFRTEQLIIQAPNTSVHIYEPYPAGADVPFGPPLNKEILHQVLDLQIAIESITASYNNETVTLQDICVAPLSPYNKNCTIMSVLNYFQNSHAVLDSQVGDDFYIYADYHTHFLYCVRAPASLNDTSLLHGPCLGTFGGPVFPWLVLGGYDDQNYNNATALVITFPVNNYYNDTERLQRAWAWEKEFISFVKNYKNPNLTISFTAERSIEDELNRESNSDVFTVIISYVVMFLYISLALGHIQSCSRLLVDSKISLGIAGILIVLSSVACSLGIFSYMGMPLTLIVIEVIPFLVLAVGVDNIFILVQTYQRDERLQEETLDQQLGRILGEVAPTMFLSSFSETSAFFFGALSSMPAVHTFSLFAGMAVLIDFLLQITCFVSLLGLDIKRQEKNHLDILCCVRGADDGQGSHASESYLFRFFKNYFAPLLLKDWLRPIVVAVFVGVLSFSVAVVNKVDIGLDQSLSMPNDSYVIDYFKSLAQYLHSGPPVYFVLEEGYNYSSRKGQNMVCGGMGCDNDSLVQQIFNAAELDTYTRVGFAPSSWIDDYFDWVSPQSSCCRLYNVTHQFCNASVMDPTCVRCRPLTPEGKQRPQGKEFMKFLPMFLSDNPNPKCGKGGHAAYGSAVNIVGDDTYIGATYFMTYHTILKTSADYTDAMKKARLIASNITETMRSKGSDYRVFPYSVFYVFYEQYLTIIDDTIFNLSVSLGSIFLVTLVVLGCELWSAVIMCITIAMILVNMFGVMWLWGISLNAVSLVNLVMSCGISVEFCSHITRAFTMSTKGSRVSRAEEALAHMGSSVFSGITLTKFGGIVVLAFAKSQIFEIFYFRMYLAMVLLGATHGLIFLPVLLSYIGPSVNKAKRHTTYERYRGTERERLLNF
other: mitochondrial ROS level [2]: increases | other: mitophagy, delivery of mitochondrial proteins to lysosomes [5]: decreases | other: mitochondrial membrane potential [3]: decreases | other: mitophagy activation by CCCP [6]: no change

B4: Niemann–Pick type C intracellular cholesterol transporter 1 (Npc1): Fut2ΔISC (protein)
parent chain: B3 parent chain
expression_or_secretion [4]: no change

B5: basigin (Bsg): Bsg-N306Q (protein)
parent chain: MAAALLLALAFTLLSGQGACAAAGFLKAPLSQERWAGGSVVLHCEAVGSPIPEIQWWFEGNAPNDSCSQLWDGARLDRVHIHAAYRQHAASSLSVDGLTAEDTGTYECRASSDPDRNHLTRPPRVKWVRAQASVVVLEPGTIQTSVQEVNSKTQLTCSLNSSGVDIVGHRWMRGGKVLQEDTLPDLHTKYIVDADDRSGEYSCIFLPEPVGRSEINVEGPPRIKVGKKSEHSSEGELAKLVCKSDASYPPITDWFWFKTSDTGEEEAITNSTEANGKYVVVSTPEKSQLTISNLDVNVDPGTYVCNATNAQGTTRETISLRVRSRMAALWPFLGIVAEVLVLVTIIFIYEKRRKPDQTLDEDDPGAAPLKGSGTHMNDKDKNVRQRNAT
other: mitochondrial ROS level [2]: no change | other: mitochondrial membrane potential [3]: no change

B6: basigin (Bsg): Fut2ΔISC (protein)
parent chain: B5 parent chain
expression_or_secretion [4]: no change
